Reference: patent US20200397860A1, “SLIT AND BONE GROWTH MODULATION” (Cornell University, priority 2018, published 2020)

Test system: bone marrow endothelial progenitor outgrowth cells (EPOCs)
Assay: Matrigel tube formation assay
Assay type: cell-based, mouse
Details: for tube formation (tube branch numbers): EPOCs on Matrigel
Procedure: Mouse bone marrow derived late-stage endothelial progenitor outgrowth cells (EPOCs) were obtained from BioChain (7030031) and cultured in growth medium (BioChain Z7030035) as described previously (Xie et al. 2014). Endothelial cell migration assay was set up in Trans well-24 well plates with 8-um pore filters. Briefly, 1×10^5 cells/well after 1-hour serum starvation were seeded in the upper chamber, then incubated with conditioned medium from osteoblasts and control in the lower chambers for a further 3 h. The cells in the upper surface of each filter were removed with cotton swabs. The cells that migrated into the lower surface were fixed with 4% PFA for 30 min and then stained with crystal violet. The cell numbers were quantified by counting a centered microscope field per each filter (5 wells for each condition). Endothelial cell wound healing assays were conducted in 12-well plates precoated with gelatin (Stemcell Technologies). 3×10^5 cells/well were plated overnight and stimulated with a wound in the form of a single linear scratch made with a yellow pipette tip. After gently washing the well twice, cells were cultured in medium with SLIT3 or vehicle. At 6 and 12 hours after injury, cells were stained by 0.5% crystal violet and photographed. The width of the wound area was quantitatively evaluated using ImageJ (see website at rsb.info.uih.gov/ij/download.html). Endothelial cell proliferation assays were conducted in 96-well plates pre-coated with gelatin (Stemcell Technologies). EPOCs (3×10^4 cells/well) were seeded in the medium with a serial dilution of SLIT3 protein or vehicle in plates. At 0, 24, 48 hours after seeding, cells were incubated with 10-fold diluted Alamar Blue solution (Thermo Fisher) and the supernatant was evaluated with a spectrophotometer (Thermo) (5 wells for each condition). Endothelial cell tube formation assay was conducted in 96-well plates pre-coated with Matrigel (BD). After 1 h serum starvation, EPOCs (3×10^4 cells/well) were seeded in conditioned medium dilution or control medium on polymerized Matrigel in plates. Alter 5 hours incubation at 37° C., the number of tube branches each well was observed and quantified by counting four random fields per well with microscopy (5 wells for each condition).

B1: SLIT3: SLIT3 recombinant protein (R&D); secreted ligand of ROBO receptors (protein, UniProt O75094 34-1523, looked up)
Slit homolog 3 protein: CPTKCTCSAASVDCHGLGLRAVPRGIPRNAERLDLDRNNITRITKMDFAGLKNLRVLHLEDNQVSVIERGAFQDLKQLERLRLNKNKLQVLPELLFQSTPKLTRLDLSENQIQGIPRKAFRGITDVKNLQLDNNHISCIEDGAFRALRDLEILTLNNNNISRILVTSFNHMPKIRTLRLHSNHLYCDCHLAWLSDWLRQRRTVGQFTLCMAPVHLRGFNVADVQKKEYVCPAPHSEPPSCNANSISCPSPCTCSNNIVDCRGKGLMEIPANLPEGIVEIRLEQNSIKAIPAGAFTQYKKLKRIDISKNQISDIAPDAFQGLKSLTSLVLYGNKITEIVKGLFDGLVSLQLLLLNANKINCLRVNTFQDLQNLNLLSLYDNKLQTISKGLFAPLQSIQTLHLAQNPFVCDCHLKWLADYLQDNPIETSGARCSSPRRLANKRISQIKSKKFRCSGSEDYRSRFSSECFMDLVCPEKCRCEGTIVDCSNQKLVRIPSHLPEYVTDLRLNDNEVSVLEATGIFKKLPNLRKINLSNNKIKEVREGAFDGAASVQELMLTGNQLETVHGRVFRGLSGLKTLMLRSNLIGCVSNDTFAGLSSVRLLSLYDNRITTITPGAFTTLVSLSTINLLSNPFNCNCHLAWLGKWLRKRRIVSGNPRCQKPFFLKEIPIQDVAIQDFTCDGNEESSCQLSPRCPEQCTCMETVVRCSNKGLRALPRGMPKDVTELYLEGNHLTAVPRELSALRHLTLIDLSNNSISMLTNYTFSNMSHLSTLILSYNRLRCIPVHAFNGLRSLRVLTLHGNDISSVPEGSFNDLTSLSHLALGTNPLHCDCSLRWLSEWVKAGYKEPGIARCSSPEPMADRLLLTTPTHRFQCKGPVDINIVAKCNACLSSPCKNNGTCTQDPVELYRCACPYSYKGKDCTVPINTCIQNPCQHGGTCHLSDSHKDGFSCSCPLGFEGQRCEINPDDCEDNDCENNATCVDGINNYVCICPPNYTGELCDEVIDHCVPELNLCQHEAKCIPLDKGFSCECVPGYSGKLCETDNDDCVAHKCRHGAQCVDTINGYTCTCPQGFSGPFCEHPPPMVLLQTSPCDQYECQNGAQCIVVQQEPTCRCPPGFAGPRCEKLITVNFVGKDSYVELASAKVRPQANISLQVATDKDNGILLYKGDNDPLALELYQGHVRLVYDSLSSPPTTVYSVETVNDGQFHSVELVTLNQTLNLVVDKGTPKSLGKLQKQPAVGINSPLYLGGIPTSTGLSALRQGTDRPLGGFHGCIHEVRINNELQDFKALPPQSLGVSPGCKSCTVCKHGLCRSVEKDSVVCECRPGWTGPLCDQEARDPCLGHRCHHGKCVATGTSYMCKCAEGYGGDLCDNKNDSANACSAFKCHHGQCHISDQGEPYCLCQPGFSGEHCQQENPCLGQVVREVIRRQKGYASCATASKVPIMECRGGCGPQCCQPTRSKRRKYVFQCTDGSSFVEEVERHLECGCLACS
- tube formation (tube branch numbers): enhanced
- tube formation (tube branch numbers) (listed as Slit3): increases with increased Slit3
- tube formation capacity in response to ligand after Robo1 knockdown (EPOCs transduced with Robo1 shRNA): impaired their response
- ability to induce tube formation after shRNA-mediated knockdown of YAP (EPOCs transduced with YAP shRNA): significantly reduced the ability
